Values belong to the binder of their own block, whether it stands above or below them. Ends that are not written are not given here.
Columns and labels:
[1] = biological target: T1, Bqt4_(2–140), N-terminal domain of Bqt4 (S. pombe, UniProt O60158 2-140); assay: fluorescence polarisation; 100 nM FITC-labeled Lem2BBM with Bqt4NTD from 20 nM to 50 μM; 25 mM Tris–HCl pH 8.0, 150 mM NaCl, 10% glycerol; 25°C; conditions: both partners purified
T1 construct: Bqt4, S. pombe inner nuclear membrane protein, residues 2-140; also called Bqt4NTD; Bqt4NTD^WT; source: E. coli BL21(DE3), purified (Ni-NTA, on-beads Ulp1 digestion, Superdex200); not shown: His6, N-terminal, cleaved; SUMO, N-terminal, cleaved
T1 sequence (looked up): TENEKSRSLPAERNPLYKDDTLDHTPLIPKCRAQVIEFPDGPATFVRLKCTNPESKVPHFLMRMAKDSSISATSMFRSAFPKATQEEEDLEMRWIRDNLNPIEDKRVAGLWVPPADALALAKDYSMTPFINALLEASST

[2] = biological target: T1, Bqt4_(2–140), N-terminal domain of Bqt4; assay: pull-down; 30 μg GST-tagged Rap1 and 20 μg purified Bqt4 on glutathione-Sepharose 4B beads, 25 mM Tris pH 8.0, 100 mM NaCl, 10% glycerol, 4°C, 40 min; SDS-PAGE; conditions: both partners purified
Bqt4_(2–180) = biological target: T2, Bqt4_(2–180) (S. pombe, UniProt O60158 2-180); assay: as above; conditions: both partners purified
T2 construct: Bqt4, S. pombe, residues 2-180; also called N-terminal region of Bqt4; source: E. coli BL21(DE3), purified (Ni-NTA, on-beads Ulp1 digestion, Superdex200); not shown: His6, N-terminal, cleaved; SUMO, N-terminal, cleaved
T2 sequence (looked up): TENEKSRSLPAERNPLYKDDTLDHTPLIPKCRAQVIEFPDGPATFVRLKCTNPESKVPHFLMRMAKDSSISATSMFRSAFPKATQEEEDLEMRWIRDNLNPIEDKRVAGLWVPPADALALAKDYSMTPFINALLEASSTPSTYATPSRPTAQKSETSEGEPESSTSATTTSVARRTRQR

[3] = biological target: T3, SUMO_(21–92)-Bqt4_(8–140) fusion protein (S. pombe, UniProt O60158 8-140); assay: crystal structure; Bqt4 construct and peptide mixed at a molar ratio of 1:1.5; molecular replacement; conditions: both partners purified
T3 construct: Bqt4, S. pombe, residues 8-140; crystallisation fusion; also called SUMO-Bqt4NTD; Sumo-fused Bqt4_(8–140); not shown: SUMO (residues 21-92), N-terminal, kept
T3 sequence (looked up): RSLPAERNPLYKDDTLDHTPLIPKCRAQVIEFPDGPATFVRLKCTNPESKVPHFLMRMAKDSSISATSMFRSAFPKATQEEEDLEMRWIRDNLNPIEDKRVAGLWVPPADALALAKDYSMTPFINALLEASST

Bqt4NTD R33A, O60158 = biological target: T4, Bqt4NTD R33A, O60158; assay: ITC; conditions: chain shown with the change;; parent: 11.4 ± 1.2
T4 chain: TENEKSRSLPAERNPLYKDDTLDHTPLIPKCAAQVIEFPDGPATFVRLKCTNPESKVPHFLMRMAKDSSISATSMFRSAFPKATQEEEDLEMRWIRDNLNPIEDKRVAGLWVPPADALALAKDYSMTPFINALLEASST

[4] = biological target: T5, Bqt4_(2–140), N-terminal domain of Bqt4 (S. pombe, UniProt O60158 2-140); assay: ITC
T5 chain: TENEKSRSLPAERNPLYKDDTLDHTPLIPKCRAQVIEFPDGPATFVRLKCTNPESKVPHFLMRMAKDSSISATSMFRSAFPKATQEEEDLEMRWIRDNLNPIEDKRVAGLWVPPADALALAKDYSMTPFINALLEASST

[5] = biological target: T1, Bqt4_(2–140), N-terminal domain of Bqt4; assay: ITC; ITC200; peptide (Rap1 479-527 at 1000–1500 μM) titrated into Bqt4 2-140 (100–150 μM), 20°C, 20 mM Tris–HCl pH 8.0, 150 mM NaCl; one binding site model; two independent experiments; conditions: both partners purified
Bqt4NTD R33A = biological target: T6, Bqt4NTD R33A (S. pombe, UniProt O60158 2-140, R33A); assay: as above; conditions: both partners purified
T6 construct: Bqt4, S. pombe, residues 2-140; also called Bqt4 (R33A); source: E. coli BL21(DE3), purified (Ni-NTA, on-beads Ulp1 digestion, Superdex200); not shown: His6, N-terminal, cleaved; SUMO, N-terminal, cleaved
T6 sequence (looked up): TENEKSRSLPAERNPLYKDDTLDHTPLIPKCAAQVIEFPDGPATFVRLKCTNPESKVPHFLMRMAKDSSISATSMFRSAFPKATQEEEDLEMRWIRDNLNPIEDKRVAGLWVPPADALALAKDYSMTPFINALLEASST

Bqt4NTD D90R, O60158 = biological target: T7, Bqt4NTD D90R, O60158; assay: ITC; conditions: chain shown with the change;; parent: 11.4 ± 1.2
T7 chain: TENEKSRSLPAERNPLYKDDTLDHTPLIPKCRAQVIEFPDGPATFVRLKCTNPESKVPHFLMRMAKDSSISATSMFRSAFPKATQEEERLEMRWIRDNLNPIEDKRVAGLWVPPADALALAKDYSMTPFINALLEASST

Bqt4NTD D90R = biological target: T8, Bqt4NTD D90R (S. pombe, UniProt O60158 2-140, D90 into arginine); assay: ITC; ITC200; peptide (Rap1 479-527 at 1000–1500 μM) titrated into Bqt4 2-140 (100–150 μM), 20°C, 20 mM Tris–HCl pH 8.0, 150 mM NaCl; one binding site model; two independent experiments; conditions: both partners purified
T8 construct: Bqt4, S. pombe, residues 2-140; also called Bqt4^D90 substituted into arginine; source: E. coli BL21(DE3), purified (Ni-NTA, on-beads Ulp1 digestion, Superdex200); not shown: His6, N-terminal, cleaved; SUMO, N-terminal, cleaved
T8 sequence (looked up): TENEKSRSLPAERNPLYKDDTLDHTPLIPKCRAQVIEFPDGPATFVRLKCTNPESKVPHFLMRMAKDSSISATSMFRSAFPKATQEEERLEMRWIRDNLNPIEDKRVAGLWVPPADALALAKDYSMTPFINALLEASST

B1: FITC-labeled Lem2BBM (peptide, UniProt Q10109 261-279, looked up)
chain: SAEEDDELFQNYVLQQTRK
modifications: also: FITC label, position not given here
notes: also called fluorescent FITC-labeled Lem2BBM; source: E. coli BL21(DE3), purified; labeled with EZLabel Protein FITC Labeling Kit; not shown: GST, N-terminal, cleaved
Kd [1]: 0.61 µM

B4: Rap1_(479–527) S497E (domain or fragment, S. pombe, UniProt Q96TL7 479-527, looked up)
chain: EIPLLSDYSDSENISEKSEDDEEAFEKQVTSSYSSPIKVKSQGKSSKGS
notes: phosphomimetic; also called Rap1^S497E; source: E. coli BL21(DE3), purified (glutathione-Sepharose 4B, on-beads 3C digestion, Superdex75); not shown: GST, N-terminal, cleaved
Kd (Bqt4NTD R33A, O60158): 24.1 µM
Kd [4]: 2.6 µM
binding result [5]: binds
binding result (Bqt4NTD R33A): binds

The remaining lines, values ahead:

binding result [2]: binds
binding result (Bqt4_(2–180)): binds
B2: GST-tagged Rap1_(490–513) (peptide, UniProt Q96TL7 490-513, looked up)
chain: ENISEKSSDDEEAFEKQVTSSYSS
notes: also called GST-Rap1BBM; source: E. coli BL21(DE3); not shown: GST, N-terminal, kept

binding result [3]: binds
B3: Rap1_(498–512) (peptide)
peptide: GPLDDEEAFEKQVTSSYS
notes: three extra residues left at the N-terminus after removal of GST by 3C protease; also called Rap1BBM (in the crystal); source: E. coli BL21(DE3), purified (glutathione-Sepharose 4B, on-beads 3C digestion, Superdex75); not shown: GST, N-terminal, cleaved

Kd (Bqt4NTD D90R, O60158): 21.2 µM
Kd [4]: 57.8 µM
fold decrease in binding affinity against wild-type Rap1 [5]: 5 fold
binding result (Bqt4NTD D90R): binds
B5: Rap1_(479–527) S513E (domain or fragment, S. pombe, UniProt Q96TL7 479-527, looked up)
chain: EIPLLSDYSDSENISEKSSDDEEAFEKQVTSSYSEPIKVKSQGKSSKGS
notes: phosphomimetic; also called Rap1^S513E; source: E. coli BL21(DE3), purified (glutathione-Sepharose 4B, on-beads 3C digestion, Superdex75); not shown: GST, N-terminal, cleaved

Source: paper PMC6379675, “Structural insights into chromosome attachment to the nuclear envelope by an inner nuclear membrane protein Bqt4 in fission yeast” (Nucleic Acids Research, 2018)
